{"source": "patent US10434147B2", "about": "“Treatment type 2 diabetes mellitus patients” (Sanofi-Aventis Deutschland GmbH, priority 2015, dated 2019)", "key": {"[1]": {"tested_on": "Patients with Type 2 Diabetes Insufficiently Controlled with Insulin Glargine with or without Metformin", "assay": "HbA1c, randomized open-label active-controlled 3-arm 26-week study (GetGoal-Duo2)", "type": "in vivo, human", "source_text": "(§1) FIG. 6—Graphical study design. ^1 Insulin glargine should be injected subcutaneously once daily at dinner or breakfast time (according to patient's/investigators' preference). […] Meal used for insulin glulisine dosing should remain the same throughout the 26-week treatment period. ^4 Injection of insulin glulisine prior to breakfast, lunch and dinner.\n(§2) Co-primary endpoints at 26 weeks were (1) non-inferiority (95% CI upper bound <0.4%) in HbA1c reduction with LIXI vs GLU-1 and (2) for LIXI vs GLU-3, either non-inferiority in HbA1c reduction (2a) OR superiority (one-sided α≤0.025) in body weight change (2b). FPG, PPG, IG dose, composite outcomes, AEs, and hypoglycemia were assessed."}, "[2]": {"tested_on": "Patients with Type 2 Diabetes Insufficiently Controlled with Insulin Glargine with or without Metformin", "assay": "Treatment-emergent adverse events, 26-week study", "type": "in vivo, human", "source_text": "as §1, §2"}, "[3]": {"conditions": "Baseline (before IMP), mITT population"}, "[4]": {"conditions": "Week 26 (LOCF), mITT population"}, "[5]": {"conditions": "Safety population, PT ≥ 3% table"}}, "note": "Marks after values point to notes of the source that are not given here.", "data": [{"substance": "Insulin Glulisine QD: insulin glulisine once daily, added to insulin glargine ± metformin (comparator arm)", "values": [{"measurement": "HbA1c change to Week 26, LS Mean difference (SE) of Lixisenatide vs. the labelled insulin glulisine arm", "setting": "[1]; ANCOVA, mITT population", "result": "−0.05 (0.059) %"}, {"measurement": "HbA1c, Change from baseline to Week 26 (LOCF), LS Mean (SE)", "setting": "[1]; ANCOVA, mITT population", "result": "−0.58 (0.054) %"}, {"measurement": "HbA1c, BL (end run-in) mean ± SD", "setting": "[1]; BL (end run-in), mITT", "result": "7.7 ± 0.6", "unit": "%"}, {"measurement": "HbA1c, Baseline, Mean (SD)", "setting": "[1]; [3]", "result": "7.72 (0.58) %"}, {"measurement": "HbA1c, Baseline, Median", "setting": "[1]; [3]", "result": 7.70, "unit": "%"}, {"measurement": "HbA1c, Screening (start run-in) mean ± SD", "setting": "[1]; Screening (start run-in), mITT", "result": "8.5 ± 0.7", "unit": "%"}, {"measurement": "HbA1c, Week 26 (LOCF), Mean (SD)", "setting": "[1]; [4]", "result": "7.21 (0.79) %"}, {"measurement": "HbA1c, Week 26 (LOCF), Median", "setting": "[1]; [4]", "result": 7.10, "unit": "%"}, {"measurement": "HbA1c, Week 26 (LOCF) mean ± SD", "setting": "[1]; Week 26 (LOCF), mITT, Example 2 table", "result": "7.2 ± 0.8", "unit": "%"}, {"measurement": "HbA1c, LS mean treatment difference (lixisenatide vs the labelled arm), co-primary endpoint", "setting": "[1]; Week 26, mITT, Example 2 table", "result": "−0.1^† %"}, {"measurement": "HbA1c, LS mean ± SE change from BL", "setting": "[1]; Week 26, mITT, Example 2 table", "result": "−0.6 ± 0.1", "unit": "%"}, {"measurement": "HbA1c, Change from baseline to Week 26 (LOCF), Mean (SD)", "setting": "[1]; mITT population", "result": "−0.51 (0.80) %"}, {"measurement": "HbA1c, Change from baseline to Week 26 (LOCF), Median", "setting": "[1]; mITT population", "result": "−0.50", "unit": "%"}, {"measurement": "Patients with any TEAE leading to death", "setting": "[2]; Safety population", "result": "0 n (%)"}, {"measurement": "Patients with treatment emergent SAE: Accidental overdose", "setting": "[2]; Safety population", "result": "2 (0.7%) n (%)"}, {"measurement": "Patients with TEAE: Accidental overdose", "setting": "[2]; [5]", "result": "13 (4.3%) n (%)"}, {"measurement": "Patients with TEAE: Headache", "setting": "[2]; [5]", "result": "8 (2.7%) n (%)"}, {"measurement": "Patients with TEAE: Hypoglycaemia", "setting": "[2]; [5]", "result": "140 (46.5%) n (%)"}, {"measurement": "Patients with TEAE: Infections and infestations (SOC)", "setting": "[2]; [5]", "result": "70 (23.3%) n (%)"}, {"measurement": "Patients with TEAE: Influenza", "setting": "[2]; [5]", "result": "8 (2.7%) n (%)"}, {"measurement": "Patients with TEAE: Injury, poisoning and procedural complications (SOC)", "setting": "[2]; [5]", "result": "20 (6.6%) n (%)"}, {"measurement": "Patients with TEAE: Investigations (SOC)", "setting": "[2]; [5]", "result": "76 (25.2%) n (%)"}, {"measurement": "Patients with TEAE: Metabolism and nutrition disorders (SOC)", "setting": "[2]; [5]", "result": "143 (47.5%) n (%)"}, {"measurement": "Adjudicated by PSAC: Acute on chronic pancreatitis", "setting": "[2]; in vivo", "result": "0 n (%)"}, {"measurement": "Adjudicated by PSAC: Acute pancreatitis", "setting": "[2]; in vivo", "result": "0 n (%)"}, {"measurement": "Adjudicated by PSAC: Chronic pancreatitis", "setting": "[2]; in vivo", "result": "0 n (%)"}, {"measurement": "Adjudicated by PSAC: Unknown pancreatitis", "setting": "[2]; in vivo", "result": "0 n (%)"}, {"measurement": "Gastrointestinal AEs: Diarrhea", "setting": "[2]; in vivo", "result": "10 (3) n (%)"}, {"measurement": "Gastrointestinal AEs: Nausea", "setting": "[2]; in vivo", "result": "5 (2) n (%)"}, {"measurement": "Gastrointestinal AEs: Vomiting", "setting": "[2]; in vivo", "result": "5 (2) n (%)"}, {"measurement": "Patients with TEAE on the specific adverse event form for increased calcitonin (>=20 ng/L): Any", "setting": "[2]; in vivo", "result": "0 n (%)"}, {"measurement": "Patients with TEAE on the specific adverse event form for increased calcitonin (>=20 ng/L): Blood calcitonin increased", "setting": "[2]; in vivo", "result": "0 n (%)"}, {"measurement": "Patients with TEAE: Any class", "setting": "[2]; in vivo", "result": "222 (73.8%) n (%)"}, {"measurement": "Patients with TEAE: Blood glucose decreased", "setting": "[2]; in vivo", "result": "67 (22.3%) n (%)"}, {"measurement": "Patients with TEAE: Diarrhoea", "setting": "[2]; in vivo", "result": "10 (3.3%) n (%)"}, {"measurement": "Patients with TEAE: Gastrointestinal disorders (SOC)", "setting": "[2]; in vivo", "result": "26 (8.6%) n (%)"}, {"measurement": "Patients with TEAE: Nasopharyngitis", "setting": "[2]; in vivo", "result": "21 (7.0%) n (%)"}, {"measurement": "Patients with TEAE: Nausea", "setting": "[2]; in vivo", "result": "5 (1.7%) n (%)"}, {"measurement": "Patients with TEAE: Nervous system disorders (SOC)", "setting": "[2]; in vivo", "result": "22 (7.3%) n (%)"}, {"measurement": "Patients with TEAE: Upper respiratory tract infection", "setting": "[2]; in vivo", "result": "5 (1.7%) n (%)"}, {"measurement": "Patients with TEAE: Vomiting", "setting": "[2]; in vivo", "result": "5 (1.7%) n (%)"}, {"measurement": "Patients with any TEAE", "setting": "[2]; in vivo", "result": "222 (73.8%) n (%)"}, {"measurement": "Patients with any TEAE leading to permanent treatment discontinuation", "setting": "[2]; in vivo", "result": "2 (0.7%) n (%)"}, {"measurement": "Patients with any treatment emergent SAE", "setting": "[2]; in vivo", "result": "11 (3.7%) n (%)"}, {"measurement": "Patients with events adjudicated as allergic reaction by ARAC: All, Any category, Any event", "setting": "[2]; in vivo", "result": "0 n (%)"}, {"measurement": "Patients with events adjudicated as allergic reaction by ARAC: OTHER ALLERGIC REACTION, Rhinitis allergic", "setting": "[2]; in vivo", "result": "0 n (%)"}, {"measurement": "Patients with events adjudicated as allergic reaction by ARAC: Possibly Related to IMP, Any event", "setting": "[2]; in vivo", "result": "0 n (%)"}, {"measurement": "Patients with events adjudicated as allergic reaction by ARAC: URTICARIA (HIVES), Urticaria", "setting": "[2]; in vivo", "result": "0 n (%)"}, {"measurement": "Patients with treatment emergent SAE: Abdominal pain", "setting": "[2]; in vivo", "result": "0 n (%)"}, {"measurement": "Patients with treatment emergent SAE: Angina pectoris", "setting": "[2]; in vivo", "result": "0 n (%)"}, {"measurement": "Patients with treatment emergent SAE: Angina unstable", "setting": "[2]; in vivo", "result": "1 (0.3%) n (%)"}, {"measurement": "Patients with treatment emergent SAE: Ankle fracture", "setting": "[2]; in vivo", "result": "1 (0.3%) n (%)"}, {"measurement": "Patients with treatment emergent SAE: Any class", "setting": "[2]; in vivo", "result": "11 (3.7%) n (%)"}, {"measurement": "Patients with treatment emergent SAE: Atrial fibrillation", "setting": "[2]; in vivo", "result": "1 (0.3%) n (%)"}, {"measurement": "Patients with treatment emergent SAE: Atrioventricular block complete", "setting": "[2]; in vivo", "result": "0 n (%)"}, {"measurement": "Patients with treatment emergent SAE: Basal cell carcinoma", "setting": "[2]; in vivo", "result": "0 n (%)"}, {"measurement": "Patients with treatment emergent SAE: Cardiac disorders (SOC)", "setting": "[2]; in vivo", "result": "3 (1.0%) n (%)"}, {"measurement": "Patients with treatment emergent SAE: Cardiac failure chronic", "setting": "[2]; in vivo", "result": "0 n (%)"}, {"measurement": "Patients with treatment emergent SAE: Cardiac failure congestive", "setting": "[2]; in vivo", "result": "0 n (%)"}, {"measurement": "Patients with treatment emergent SAE: Cellulitis", "setting": "[2]; in vivo", "result": "1 (0.3%) n (%)"}, {"measurement": "Patients with treatment emergent SAE: Cerebrovascular accident", "setting": "[2]; in vivo", "result": "0 n (%)"}, {"measurement": "Patients with treatment emergent SAE: Decreased appetite", "setting": "[2]; in vivo", "result": "0 n (%)"}, {"measurement": "Patients with treatment emergent SAE: Dehydration", "setting": "[2]; in vivo", "result": "1 (0.3%) n (%)"}, {"measurement": "Patients with treatment emergent SAE: Diabetic bullosis", "setting": "[2]; in vivo", "result": "0 n (%)"}, {"measurement": "Patients with treatment emergent SAE: Epigastric discomfort", "setting": "[2]; in vivo", "result": "0 n (%)"}, {"measurement": "Patients with treatment emergent SAE: Erysipelas", "setting": "[2]; in vivo", "result": "0 n (%)"}, {"measurement": "Patients with treatment emergent SAE: Gastric ulcer haemorrhage", "setting": "[2]; in vivo", "result": "0 n (%)"}, {"measurement": "Patients with treatment emergent SAE: Gastrointestinal disorders (SOC)", "setting": "[2]; in vivo", "result": "0 n (%)"}, {"measurement": "Patients with treatment emergent SAE: Hepatic mass", "setting": "[2]; in vivo", "result": "0 n (%)"}, {"measurement": "Patients with treatment emergent SAE: Hepatobiliary disorders (SOC)", "setting": "[2]; in vivo", "result": "0 n (%)"}, {"measurement": "Patients with treatment emergent SAE: Hypertension", "setting": "[2]; in vivo", "result": "0 n (%)"}, {"measurement": "Patients with treatment emergent SAE: Hypoglycaemia", "setting": "[2]; in vivo", "result": "1 (0.3%) n (%)"}, {"measurement": "Patients with treatment emergent SAE: Hypoglycaemic unconsciousness", "setting": "[2]; in vivo", "result": "2 (0.7%) n (%)"}, {"measurement": "Patients with treatment emergent SAE: Incisional hernia", "setting": "[2]; in vivo", "result": "1 (0.3%) n (%)"}, {"measurement": "Patients with treatment emergent SAE: Infections and infestations (SOC)", "setting": "[2]; in vivo", "result": "1 (0.3%) n (%)"}, {"measurement": "Patients with treatment emergent SAE: Injury, poisoning and procedural complications (SOC)", "setting": "[2]; in vivo", "result": "4 (1.3%) n (%)"}]}]}
